From patent publication US20240034792A1 (HARBOUR BIOMED SHANGHAI, published 2024) come the findings set out here.

Numbering of substitutions follows the chain as printed.

In assay [1] the target is T1, Human CD73 expressed on CHO-K1 cells (CHO-K1-hCD73) (human, UniProt P21589 27-549).
T1 construct: whole, on cells
T1 sequence (looked up): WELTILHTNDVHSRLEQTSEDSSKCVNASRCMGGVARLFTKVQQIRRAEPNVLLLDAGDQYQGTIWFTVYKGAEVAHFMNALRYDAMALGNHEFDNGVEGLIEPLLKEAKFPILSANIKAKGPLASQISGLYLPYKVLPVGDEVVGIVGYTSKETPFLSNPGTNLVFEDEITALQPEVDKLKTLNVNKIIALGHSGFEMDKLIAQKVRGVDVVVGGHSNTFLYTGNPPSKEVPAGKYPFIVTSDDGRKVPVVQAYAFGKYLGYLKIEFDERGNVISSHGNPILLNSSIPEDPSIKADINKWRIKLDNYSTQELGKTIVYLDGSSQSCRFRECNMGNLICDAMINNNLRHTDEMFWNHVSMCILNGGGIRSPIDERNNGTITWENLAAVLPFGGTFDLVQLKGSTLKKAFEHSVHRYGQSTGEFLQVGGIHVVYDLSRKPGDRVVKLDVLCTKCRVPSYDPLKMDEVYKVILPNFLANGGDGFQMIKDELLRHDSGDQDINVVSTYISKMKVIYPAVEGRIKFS
The assay is described as follows: FACS, CHO-K1-hCD73 cells. The method, then:
In order to investigate the binding activity of the CD73×PD-1 bispecific antibody to human CD73 and PD-1, the binding assay at the cellular level was performed using a CHO-K1 cell strain overexpressing human CD73 or PD-1 (CHO-K1-hCD73 or CHO-K1-hPD-1). Briefly, the CHO-K1-hCD73 and CHO-K1-hPD-1 cells were digested and resuspended in an F-12K complete medium, and the cell density was adjusted to 1×10⁶ cells/mL. The cells were seeded in a 96-well V-bottom plate (Corning, #3894) at 100 μL/well, followed by the addition at 100 μL/well and centrifugation at 500 g at 4° C. for 5 min, and then the supernatant was discarded. Antibodies were 3-fold diluted to a maximum final concentration of 50 nM, and a total of 8 concentrations were set. 100 μL of the diluted antibodies was added to each well, and the cells were incubated at 4° C. for 1 h away from light. Thereafter, the cells in each well were rinsed twice with 100 μL of pre-cooled PBS, and centrifuged at 500 g at 4° C. for 5 min, and then the supernatant was discarded. Then 100 μL of a fluorescent secondary antibody (goat anti-human IgG (H+L) secondary antibody, Alexa Fluor® 488 conjugate, Invitrogen, Cat #A11013, 1:1000) was added to each well. […] Finally, the cells in each well were resuspended in 200 μL of pre-cooled PBS, and the fluorescence signal values were read using a BD FACS CANTOII.
On the technique in general: A flow cytometer gives signals particle by particle.

In assay [2] the target is T2, Human PD-1 expressed on CHO-K1 cells (CHO-K1/hPD-1) (human, UniProt Q15116 25-288).
T2 construct: whole, on cells; also called CHO-K1 cells overexpressing human PD-1
The assay can be described thus: FACS, CHO-K1/hPD-1 cells. The method, then: (§1) In order to investigate the in vitro binding activity of the PD-1 antigen-binding proteins to human/cynomolgus monkey PD-1, the binding assay at the cellular level was performed using a CHO-K1 cell strain overexpressing human or cynomolgus monkey PD-1 (CHO-K1/hPD-1 or CHO-K1/cyno PD-1, from GenScript). Briefly, the CHO-K1-hPD-1 cells were digested and resuspended in an F-12K complete medium, and the cell density was adjusted to 1×10⁶ cells/mL. The cells were seeded in a 96-well V-bottom plate (Corning, Cat#3894) at 100 μL/well, followed by the addition of the test antigen-binding proteins with concentrations 2-fold of final concentrations obtained by 5-fold gradient dilution were each added at 100 μL/well. The mixtures were well mixed. The maximum final concentration of the antigen-binding proteins was 100 nM or 300 nM. A total of 8-11 concentrations were set. hIgG was used as a control. The cells were incubated at 4° C. for 1 h away from light. Thereafter, the cells in each well were rinsed twice with 100 μL of pre-cooled PBS, and centrifuged at 500 g at 4° C. for 5 min, and then the supernatant was discarded. Then 100 μL of a fluorescent secondary antibody (goat anti-human IgG (H+L) secondary antibody, Alexa Fluor® 488 conjugate, Invitrogen, Cat #A11013, 1:1000) was added to each well. The plate was incubated away from light at 4° C. for 30 min. The cells in each well were rinsed twice with 200 μL of pre-cooled PBS, and centrifuged at 500 g at 4° C. for 5 min, and then the supernatant was discarded. Finally, the cells in each well were resuspended in 200 μL of pre-cooled PBS, and the fluorescence signal values were read using a BD FACS CANTOII.

The target in assay [3] is T3, Human PD-1-His protein (ACROBiosystems, # PD1-H5221) (human, UniProt Q15116 25-167).
T3 construct: Bought reagent, coated on the ELISA plate; also called human PD-1 protein; human PD-1 antigen; not shown: His tag
The assay is described as follows: ELISA, plate-coated human PD-1-His. The method, then: Human PD-1-His protein (ACROBiosystems, # PD1-H5221) was diluted to 2 μg/mL with PBS, added to a 96-well plate (Corning, cat#9018) at 100 μL/well, and incubated at 4° C. overnight. After the liquid was discarded, the plate was washed 3 times with PBST buffer (pH 7.4, containing 0.05% Tween-20), and 250 μL of 2% BSA blocking buffer was added. The plate was incubated at 37° C. for 1 h. The blocking buffer was discarded, and the plate was washed 3 times with PBST buffer (pH 7.4, containing 0.05% Tween-20). The test antigen-binding protein was 5-fold diluted in sequence at an initial concentration of 100 nM for a total of 8-10 concentration gradients, and added at 100 μL/well. The plate was incubated at 37° C. for 1 h. An isotype antibody was taken as a control. After the plate was washed 3 times with PBST buffer (pH 7.4, containing 0.05% Tween-20), a 4000-fold diluted goat anti-human HRP secondary antibody (Invitrogen, #A18805) was added. The plate was incubated away from light at 37° C. for 1 h. After the plate was washed 3 times with PBST buffer (pH 7.4, containing 0.05% Tween-20), TMB (Biopanda, # TMB-S-003) was added at 100 μL/well. The plate was left away from light at room temperature for about 5 min. The reactions were terminated by adding 50 μL of stop buffer (BBI life sciences, #E661006-0200) to each well, and the absorbance values at 450 nm (OD450) were measured using a microplate reader (PerkinElemer, #Enspire). The half maximal effective concentration (EC₅₀) was calculated from the measurement results.
A general note: ELISA stands for enzyme-linked immunosorbent assay.

In assay [4] the target is T4, Cynomolgus monkey PD-1-His protein (AcroBiosystems, # PD1-05223) (cynomolgus monkey, UniProt B0LAJ3 25-170).
T4 construct: Bought reagent, coated on the ELISA plate; also called cynomolgus monkey PD-1 protein
The assay is described as follows: ELISA, plate-coated cynomolgus monkey PD-1-His. How it is done:
Cynomolgus monkey PD-1-His protein (AcroBiosystems, # PD1-05223) was diluted to 2 μg/mL with PBS, added to a 96-well plate (Corning, #9018) at 100 μL/well, and incubated at 4° C. overnight. After the liquid was discarded, the plate was washed 3 times with PBST, blocked by adding 250 μL of 2% BSA, and incubated at room temperature for 1 h. The blocking buffer was discarded, and the plate was washed 3 times with PBST buffer (pH 7.4, containing 0.05% Tween-20). The test antigen-binding protein was diluted to 5 μg/mL, and added at 100 μL/well. The plate was incubated at 37° C. for 1 h. After the plate was washed 3 times with PBST buffer (pH 7.4, containing 0.05% Tween-20), a 4000-fold diluted goat anti-human HRP secondary antibody (Invitrogen, #A18805) was added. The plate was incubated at 37° C. for 1 h. After the plate was washed, TMB (Biopanda, # TMB-S-003) was added at 100 μL/well. The plate was left away from light at room temperature for 5 min. The reactions were terminated by adding 50 μL of stop buffer (BBI life sciences, #E661006-0200) to each well, and the absorbance values at 450 nm (OD450) were measured using a microplate reader (PerkinElemer, #Enspire).

The target of assay [5] is T2, Human PD-1 expressed on CHO-K1 cells …. The assay is described as follows: FACS blocking of biotin-labeled human PD-L1 binding to CHO-K1-hPD-1 cells. How it is done: Briefly, the CHO-K1-hPD-1 cells were digested and resuspended in an F-12K complete medium, and the cell density was adjusted to 1×10⁶ cells/mL. The cells were seeded in a 96-well V-bottom plate (Corning, Cat#3894) at 100 μL/well, followed by the addition of the test antigen-binding proteins with concentrations 2-fold of final concentrations obtained by 3-fold or 5-fold gradient dilution were each added at 100 μL/well. The mixtures were well mixed. The maximum final concentration of the antigen-binding proteins was 100 nM or 300 nM. A total of 8 concentrations were set. hIgG was used as a control. The cells were incubated at 4° C. for 1 h away from light. […] The cells were incubated at 4° C. away from light for 30 min. The cells in each well were rinsed twice with 100 μL of pre-cooled PBS, and centrifuged at 500 g at 4° C. for 5 min, and then the supernatant was discarded. A fluorescent secondary antibody (PE Streptavidin, BD, Cat# 554061, 1:200) was added at 100 μL/well, and the cells were incubated at 4° C. away from light for 30 min. The cells in each well were rinsed twice with 200 μL of pre-cooled PBS, and centrifuged at 500 g at 4° C. for 5 min, and then the supernatant was discarded. Finally, the cells in each well were resuspended in 200 μL of pre-cooled PBS, the fluorescence signal values were read using a BD FACS CANTOII, and the IC₅₀ values were calculated.

Assay [6] has as its target T5, Cynomolgus monkey PD-1 expressed on CHO-K1 cells (CHO-K1/cyno PD-1) (cynomolgus monkey, UniProt B0LAJ3 25-288).
T5 construct: also called CHO-K1 cells overexpressing cynomolgus monkey PD-1
The assay can be described thus: FACS, CHO-K1/cyno PD-1 cells. How it is done:
as §1

T3 sequence (Q15116 25-167 limits assumed): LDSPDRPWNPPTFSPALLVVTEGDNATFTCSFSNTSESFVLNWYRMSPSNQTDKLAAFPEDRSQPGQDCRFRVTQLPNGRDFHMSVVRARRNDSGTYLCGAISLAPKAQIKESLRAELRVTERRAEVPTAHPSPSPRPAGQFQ
T2 sequence (Q15116 25-288): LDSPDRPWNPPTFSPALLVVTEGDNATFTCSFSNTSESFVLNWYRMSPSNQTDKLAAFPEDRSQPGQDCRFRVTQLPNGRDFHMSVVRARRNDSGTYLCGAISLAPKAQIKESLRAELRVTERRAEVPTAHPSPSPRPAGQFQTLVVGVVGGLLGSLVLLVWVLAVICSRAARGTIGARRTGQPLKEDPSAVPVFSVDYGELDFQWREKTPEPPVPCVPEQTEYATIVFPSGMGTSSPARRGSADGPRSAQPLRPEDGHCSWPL
T4 sequence (B0LAJ3 entry or part of it limits assumed): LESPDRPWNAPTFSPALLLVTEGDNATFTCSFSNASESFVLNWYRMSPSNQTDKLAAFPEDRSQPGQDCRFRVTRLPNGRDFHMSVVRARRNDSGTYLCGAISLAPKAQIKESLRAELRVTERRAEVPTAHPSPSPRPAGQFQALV
T5 sequence (B0LAJ3 entry or part of it limits assumed): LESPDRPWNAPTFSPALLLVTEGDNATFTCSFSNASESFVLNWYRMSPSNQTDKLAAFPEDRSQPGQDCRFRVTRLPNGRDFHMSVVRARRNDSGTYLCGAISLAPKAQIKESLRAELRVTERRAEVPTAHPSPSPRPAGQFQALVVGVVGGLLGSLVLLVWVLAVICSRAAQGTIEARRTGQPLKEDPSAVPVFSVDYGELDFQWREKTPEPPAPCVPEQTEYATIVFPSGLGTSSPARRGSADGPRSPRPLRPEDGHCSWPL

B1: PR000846 (antibody, human IgG1, kappa, L234A L235A, V domains shown)
VH: QVQLVESGGGVAQPGRSLSLSCAASGFTFSDYGMHWVRQAPGKGLEWVALIWYDASFEYYADSVKGRFSISRDNSKNTLYLQMNSLRAEDTAVYYCVRDAQWGSRLDYWGQGTLVTVSS
VL: KIVMTQSPATLSLSPGERATLSCRASQSVSRYLAWYQQKPGQAPRLLIYDASNRATGIPARFSGSGSGTDFTLTISSLEPEDFAVYYCQQRSNWIFTFGPGTKVDIKR
notes: Parent monoclonal antibody of the CD73 end of PR003568; also called anti-CD73 IgG monoclonal antibody PR000846; anti-CD73 H2L2 antibody PR000846
As usually defined, the EC50 is the concentration that produces a half-maximal response. The molecule B1 returned an EC50 in assay [1] of 1450 pM.

B2: PR002474 (antibody, human IgG1, V domains shown)
VH: EVQLVETGGGLIQPGGSLRLSCAASGFNVSSHYMSWVRQAPGKGLEWVSIIHSGGSTYYADSVKGRFTISRDNSKNRLYLQMNSLRADDTAVYYCARATAVAEKNGYNYPFNYWGQGTLVTVSS
notes: Heavy-chain-only antibody (HCAb), human IgG1 Fc; two heavy chains, no light chain; also called R4004P547D3
Broadly, the IC50 is the concentration at which inhibition is half-maximal. Turning to B2, in assay [2], the EC50 amounted to 13900 pM and the “MFI Maximum” value turned out to be 1.08e+06. For the same molecule, in assay [3], it took 189 pM to reach a half-maximal effect (EC50) and the “OD Maximum” value is 2.97. Moreover, in assay [4], a half-maximal response (EC50) required 345 pM and the “OD Maximum” value turned out to be 2.89. In addition, in assay [5], the IC50 stood at 8910 pM and the “Maximum inhibition rate (%)” value was 92.2%.

B3: PR002476 (antibody, human IgG1, V domains shown)
VH: B2 VH with D88E
notes: Heavy-chain-only antibody (HCAb), human IgG1 Fc; two heavy chains, no light chain; also called R4004P547H11
For the molecule B3, in assay [2], the EC50 worked out at 12700 pM and the “MFI Maximum” value stood at 1.02e+06. Moreover, in assay [3], the EC50 is 171 pM and the “OD Maximum” value was 2.92. Also, in assay [4], the EC50 worked out at 366 pM and the “OD Maximum” value was found to be 2.7. In assay [5], the IC50 turned out to be 10300 pM and the “Maximum inhibition rate (%)” value amounted to 91.3%.

B4: PR002479 (antibody, human IgG1, V domains shown)
VH: B2 VH with D88E, K104E
notes: Heavy-chain-only antibody (HCAb), human IgG1 Fc; two heavy chains, no light chain; also called R4004P551D6
Take B4: in assay [2], the EC50 stood at 17000 pM and the “MFI Maximum” value is 1.05e+06. Moreover, in assay [3], the EC50 turned out to be 152 pM and the “OD Maximum” value turned out to be 2.85. Also, in assay [4], the EC50 was found to be 252 pM and the “OD Maximum” value amounted to 2.88. Further, in assay [5], the IC50 was 16200 pM and the “Maximum inhibition rate (%)” value was found to be 96.2%.

B5: PR000150 (pembrolizumab analog) (antibody, human IgG4 S228P, kappa, V domains shown)
VH: QVQLVQSGVEVKKPGASVKVSCKASGYTFTNYYMYWVRQAPGQGLEWMGGINPSNGGTNFNEKFKNRVTLTTDSSTTTAYMELKSLQFDDTAVYYCARRDYRFDMGFDYWGQGTTVTVSS
VL: EIVLTQSPATLSLSPGERATLSCRASKGVSTSGYSYLHWYQQKPGQAPRLLIYLASYLESGVPARFSGSGSGTDFTLTISSLEPEDFAVYYCQHSRDLPLTFGGGTKVEIKR
notes: Anti-PD-1 positive control; also called positive control antibody pembrolizumab
B5: in assay [6], the EC50 was 998 pM and the “MFI Maximum” value amounted to 19100. In assay [4], the EC50 came to 39 pM and the “OD Maximum” value was 2.86.
